Kd data for 35 molecules are collected here from PMC10786891, “Massively parallel profiling of RNA-targeting CRISPR-Cas13d”.

Positions count from the first letter of the chain named. Names may count otherwise.

To fix the notation:
B1: target 2 MT 5'PFS GCU 3'PFS CGA (mixed)
RNA 1: CACCCGUGCAAAAUUGCAGGGGUCUAAAACCUUCUCCAAAUUGUUUCAUCCU
RNA 2: GGGAAUGGAUCCACAUCUACGAAUUCGCUAGGAUGAAACAAUUUGGAGAAGCGAAGAUCGGAAGAGCACACGU
B2: target 2 MT 5'PFS GAU 3'PFS UGU (mixed)
RNA 1: B1 RNA 1
RNA 2: B1 RNA 2 with C28A, C52U, A54U
B3: target 2 MT 5'PFS GUU 3'PFS CUA (mixed)
RNA 1: B1 RNA 1
RNA 2: B1 RNA 2 with C28U, G53U
B4: target 2 MT 5'PFS GUU 3'PFS CUC (mixed)
RNA 1: B1 RNA 1
RNA 2: B1 RNA 2 with C28U, G53U, A54C
B5: target 2 MT 5'PFS UAU 3'PFS CCA (mixed)
RNA 1: B1 RNA 1
RNA 2: B1 RNA 2 with G27U, C28A, G53C
B6: target 2 MT 5'PFS UCG 3'PFS AUC (mixed)
RNA 1: B1 RNA 1
RNA 2: B1 RNA 2 with G27U, U29G, C52A, G53U, A54C
B7: target 2 MT 5'PFS ACC 3'PFS AAU (mixed)
RNA 1: B1 RNA 1
RNA 2: B1 RNA 2 with G27A, U29C, C52A, G53A, A54U
B8: target 2 MT 5'PFS GUU 3'PFS CUG (mixed)
RNA 1: B1 RNA 1
RNA 2: B1 RNA 2 with C28U, G53U, A54G
B9: target 2 MT 5'PFS CAC 3'PFS CGA (mixed)
RNA 1: B1 RNA 1
RNA 2: B1 RNA 2 with G27C, C28A, U29C
B10: target 2 MT 5'PFS UAU 3'PFS CCG (mixed)
RNA 1: B1 RNA 1
RNA 2: B1 RNA 2 with G27U, C28A, G53C, A54G
B11: target 2 MT 5'PFS CAC 3'PFS CGC (mixed)
RNA 1: B1 RNA 1
RNA 2: B1 RNA 2 with G27C, C28A, U29C, A54C
B12: target 2 MT 5'PFS UUA 3'PFS UCA (mixed)
RNA 1: B1 RNA 1
RNA 2: B1 RNA 2 with G27U, C28U, U29A, C52U, G53C
B13: target 2 MT 5'PFS GCU 3'PFS CAG (mixed)
RNA 1: B1 RNA 1
RNA 2: B1 RNA 2 with G53A, A54G
B14: target 2 MT 5'PFS CAC 3'PFS AGC (mixed)
RNA 1: B1 RNA 1
RNA 2: B1 RNA 2 with G27C, C28A, U29C, C52A, A54C
B15: target 2 MT 5'PFS GGA 3'PFS AUG (mixed)
RNA 1: B1 RNA 1
RNA 2: B1 RNA 2 with C28G, U29A, C52A, G53U, A54G
B16: target 2 MT 5'PFS GAU 3'PFS UGC (mixed)
RNA 1: B1 RNA 1
RNA 2: B1 RNA 2 with C28A, C52U, A54C
B17: target 2 MT 5'PFS ACC 3'PFS AAA (mixed)
RNA 1: B1 RNA 1
RNA 2: B1 RNA 2 with G27A, U29C, C52A, G53A
B18: target 2 MT 5'PFS ACC 3'PFS AAC (mixed)
RNA 1: B1 RNA 1
RNA 2: B1 RNA 2 with G27A, U29C, C52A, G53A, A54C
B19: target 2 MT 5'PFS GGA 3'PFS AUC (mixed)
RNA 1: B1 RNA 1
RNA 2: B1 RNA 2 with C28G, U29A, C52A, G53U, A54C
B20: target 2 MT 5'PFS UCG 3'PFS AUA (mixed)
RNA 1: B1 RNA 1
RNA 2: B1 RNA 2 with G27U, U29G, C52A, G53U
B21: target 2 MT 5'PFS GAC 3'PFS UCA (mixed)
RNA 1: B1 RNA 1
RNA 2: B1 RNA 2 with C28A, U29C, C52U, G53C
B22: target 2 MT 5'PFS GCA 3'PFS UCC (mixed)
RNA 1: B1 RNA 1
RNA 2: B1 RNA 2 with U29A, C52U, G53C, A54C
B23: target 2 MT 5'PFS GGA 3'PFS AUU (mixed)
RNA 1: B1 RNA 1
RNA 2: B1 RNA 2 with C28G, U29A, C52A, G53U, A54U
B24: target 2 MT 5'PFS UUA 3'PFS UCU (mixed)
RNA 1: B1 RNA 1
RNA 2: B1 RNA 2 with G27U, C28U, U29A, C52U, G53C, A54U
B25: target 2 MT 5'PFS UUA 3'PFS UCG (mixed)
RNA 1: B1 RNA 1
RNA 2: B1 RNA 2 with G27U, C28U, U29A, C52U, G53C, A54G
B26: target 2 MT 5'PFS GAC 3'PFS UCU (mixed)
RNA 1: B1 RNA 1
RNA 2: B1 RNA 2 with C28A, U29C, C52U, G53C, A54U
B27: target 2 MT 5'PFS GAC 3'PFS UCG (mixed)
RNA 1: B1 RNA 1
RNA 2: B1 RNA 2 with C28A, U29C, C52U, G53C, A54G
B28: target 2 MT 5'PFS UAU 3'PFS AUC (mixed)
RNA 1: B1 RNA 1
RNA 2: B1 RNA 2 with G27U, C28A, C52A, G53U, A54C
B29: target 2 MT 5'PFS GGA 3'PFS AUA (mixed)
RNA 1: B1 RNA 1
RNA 2: B1 RNA 2 with C28G, U29A, C52A, G53U
B30: target 2 MT 5'PFS GAU 3'PFS UGA (mixed)
RNA 1: B1 RNA 1
RNA 2: B1 RNA 2 with C28A, C52U
B31: target 2 MT 5'PFS GUU 3'PFS CUU (mixed)
RNA 1: B1 RNA 1
RNA 2: B1 RNA 2 with C28U, G53U, A54U
B32: target 1 C7A,A18G (mixed)
RNA 1: CACCCGUGCAAAAAUGCAGGGGUCUAAAACUGAGCGGAUAACCUCUCUAUGG
RNA 2: GGGAAUGGAUCCACAUCUACGAAUUCGUACCAUGGAGAGGUUAUACGCUCACCGAGAUCGGAAGAGCACACGU
B33: target 1 G15U,A16G (mixed)
RNA 1: B32 RNA 1
RNA 2: B32 RNA 2 with G34A, A36G, G37U, A45C
B34: target 1 insG 3' of 18,insU 3' of 17 (mixed)
RNA 1: B32 RNA 1
RNA 2: GGGAAUGGAUCCACAUCUACGAAUUCGUACCAUAGGUAGAGGUUAUCCGCUCACCGAGAUCGGAAGAGCACACGU
B35: target 1 G5A,C7U (mixed)
RNA 1: B32 RNA 1
RNA 2: B32 RNA 2 with G34A, A45U, G47A

For this data set, the target named is T1, EsCas13d, nuclease-dead (Eubacterium siraeum, UniProt B0MS50, R295A;H300A;R849A;H854A).
T1 sequence: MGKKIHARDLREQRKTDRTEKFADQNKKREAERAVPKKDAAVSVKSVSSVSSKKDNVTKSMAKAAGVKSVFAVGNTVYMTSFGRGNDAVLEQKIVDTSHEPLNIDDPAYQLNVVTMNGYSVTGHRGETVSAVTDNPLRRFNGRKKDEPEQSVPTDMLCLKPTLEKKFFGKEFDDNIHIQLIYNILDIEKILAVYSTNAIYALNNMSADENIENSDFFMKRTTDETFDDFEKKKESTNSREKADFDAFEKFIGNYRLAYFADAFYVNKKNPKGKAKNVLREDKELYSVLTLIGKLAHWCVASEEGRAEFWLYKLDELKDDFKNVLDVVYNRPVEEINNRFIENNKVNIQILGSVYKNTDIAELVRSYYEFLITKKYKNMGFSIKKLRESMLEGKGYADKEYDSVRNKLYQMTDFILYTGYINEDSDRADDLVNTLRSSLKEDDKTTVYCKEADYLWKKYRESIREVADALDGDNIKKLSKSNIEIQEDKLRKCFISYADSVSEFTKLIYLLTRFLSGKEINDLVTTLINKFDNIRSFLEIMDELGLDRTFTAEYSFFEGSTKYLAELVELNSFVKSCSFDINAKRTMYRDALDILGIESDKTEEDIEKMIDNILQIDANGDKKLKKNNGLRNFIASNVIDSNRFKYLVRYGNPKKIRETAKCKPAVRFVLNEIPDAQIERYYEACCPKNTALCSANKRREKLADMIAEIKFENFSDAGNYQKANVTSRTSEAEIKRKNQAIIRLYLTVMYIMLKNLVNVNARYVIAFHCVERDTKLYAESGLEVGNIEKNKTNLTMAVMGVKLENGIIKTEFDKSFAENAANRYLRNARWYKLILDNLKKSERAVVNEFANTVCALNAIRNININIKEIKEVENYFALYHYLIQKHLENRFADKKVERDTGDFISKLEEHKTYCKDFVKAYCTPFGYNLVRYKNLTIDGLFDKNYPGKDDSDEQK
Put plainly: crRNA (strand 1, pre-loaded); Mg2+; 40 mM Tris-HCl pH 7.5, 150 mM NaCl, 6 mM MgCl2, 1 mM DTT, 0.1% Tween-20, 0.2 mg/ml BSA; 25 C; 10 min per concentration, then washed. The settings on record: tags: His6-TwinStrep-SUMO cleaved; N-terminal SNAP kept (SNAP-Surface 488); label: 3' end held by stalled T7 RNA polymerase.
The term Kd denotes the concentration at which binding is half-saturated. A low value points to a tighter complex. Molecule B1 gave a Kd of 23 ± 5 nM.
To B2 belongs 21.2 ± 2.2 nM; to B3, 14 ± 1.9 nM.
Molecule B4 registered a Kd of 20.4 ± 2.3 nM.
The value for B5 was 37 ± 15 nM; that for B6 was around 70 nM.
To B7 belongs 8 ± 1.2 nM; to B8, 21.3 ± 2.8 nM.
The value for B9 was 3.01 ± 0.34 nM.
As for B10, the Kd turned out to be 55 ± 8 nM.
To B11 belongs 1.69 ± 0.2 nM; to B12, 20 ± 4 nM; to B13, 17 ± 4 nM.
With B14, the Kd is 1.87 ± 0.32 nM.
To B15 belongs 9.8 ± 0.9 nM; to B16, 14.9 ± 1.9 nM; to B17, 9.3 ± 2.7 nM.
To B18 belongs 10.5 ± 3.1 nM; to B19, 12.4 ± 1.9 nM; to B20, 29 ± 9 nM.
Regarding B21, the Kd is 13.8 ± 3.4 nM.
As to B22, the Kd is 32 ± 4 nM.
Molecule B23 yielded a Kd of 9 ± 1 nM.
The value for B24 was 28 ± 4 nM.
To B25 belongs 25 ± 4 nM.
To B26 belongs 27 ± 6 nM.
The molecule B27 gave a Kd of 15.2 ± 2.7 nM.
The value for B28 was 53 ± 9 nM; that for B29 was 10.2 ± 1.5 nM; that for B30 was 19 ± 5 nM.
The value for B31 was 16.6 ± 1.6 nM.
The value for B32 was 50 ± 8 nM; that for B33 was 27.1 ± 2.2 nM; that for B34 was 30.3 ± 2.6 nM.
Molecule B35 came in with a dissociation constant (Kd) of 7.7 ± 0.5 nM.
